Test results as given in patent publication US20220290101A1.

Target: L1 (DV1-GV4) soluble heterodimeric γδ TCR antigen, leucine zipper (LZ) format (human)
Assay: DELFIA affinity ranking with 100 nM biotinylated L1

L1 (DV1-GV4) soluble heterodimeric γδ TCR antigen, leucine zipper (LZ) format (human), sequence (main, as listed by the source): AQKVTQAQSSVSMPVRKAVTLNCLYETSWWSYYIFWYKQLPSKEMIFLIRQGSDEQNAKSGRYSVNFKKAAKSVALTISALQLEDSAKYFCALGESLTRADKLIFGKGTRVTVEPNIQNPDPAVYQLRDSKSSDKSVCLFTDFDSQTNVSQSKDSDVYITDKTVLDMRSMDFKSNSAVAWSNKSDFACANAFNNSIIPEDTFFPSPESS

Row | Binder | 100 nM L1 (DELFIA signal) (fluorescence units)
1 | 1245_P02_F07 (scFv) (scFv) scFv: QVQLQQSGPGLVKPSQTLSLTCVISGDSVSSNSAAWNWIRQSPSRGLEWLGRTYYRSKWYNDYAVSVKSRITINPDTSKNQFSLQLNSVTPEDTAVYYCARDYYYSMDVWGQGTMVTVSSGGGGSGGGGSGGGASDIQMTQSPSTLSASVGDRVTITCRASQSISSWLAWYQQKPGKAPKLLIYDASSLESGVPLRFSGSGSGTEFTLTISSLQPDDFATYYCQQSHSHPPTFGPGTKVDIK | 10400
2 | 1245_P01_E07 (scFv) (scFv) scFv: QVQLVESGGGLVKPGGSLRLSCAASGFTFSDYYMSWIRQAPGKGLEWVSYISSSGSTIYYADSVKGRFTISRDNAKNSLYLQMNSLRAEDTAVYYCARVDYADAFDIWGQGTLVTVSSGGGGSGGGGSGGGASDIQMTQSPSSLSASVGDRVTIACRAGQSIGTYLNWYQQKPGKAPKLLIYVASSLQSGVPSRFSGSGSGTEFTLTISSLQPEDFATYYCQQSYSTLLTFGRGTKVEIK | 163000
3 | 1141_P01_E01 (scFv) (scFv) scFv: QVQLVQSGAEVKKPGESLKISCKGSGYSFTSYWIGWVRQMPGKGLEWMGIIYPGDSDTRYSPSFQGQVTISADKSISTAYLQWSSLKASDTAMYYCARHQVDTRTADYWGQGTLVTVSSGGGGSGGGGSGGGASQSALTQPASVSGSPGQSVTISCTGTRSDVGGYNYVSWYQHHPGKAPKLMIYEVSNRPSGVSNRFSGSKSGNTASLTISGLQAEDEADYYCSSYTSTSTLVFGGGTKLTVL | 137000
4 | 1245_P01_G09 (scFv) (scFv) scFv: QVQLQQSGPGLVKPSQTLSLTCAISGDSVSSNSAAWNWIRQSPSRGLEWLGRTYYGSKWYNEYALSVKSRIIINPDTSKNQFSLQLNSVTPEDTAVYYCARDYYYSMDVWGQGTLVTVSSGGGGSGGGGSGGGASDIVMTQSPSTLSASIGDRVTITCRAGQSISTWLAWYQQKPGKAPKLLIYDASSLESGVPLRFSGSGSGTEFTLAISSLQPDDFATYYCQQSYSTPVTFGQGTKVEIK | 18400
5 | 1139_P01_E04 (scFv) (scFv) scFv: QVQLQQSGPGLVKPSQTLSLTCAISGDSVSSNSAAWNWIRQSPSRGLEWLGRTYYRSKWYNDYAVSVRSRITINPDTSKNQFSLQLNSVTPEDTAVYYCARSWNDAFDIWGQGTTVTVSSGGGGSGGGGSGGGASDIVMTQSPSTLSASIGDRVTITCRAGQSISTWLAWYQQKPGKAPKLLIYDASSLESGVPLRFSGSGSGTDFTLTISSLQPEDFATYYCQQSYSTPLTFGGGTKVEIK | 23800

Second part, the binder after the results:

Row | 100 nM L1 (DELFIA signal) (fluorescence units) | Binder
6 | 65300 | 1251_P02_C05 (scFv) (scFv) scFv: EVQLLESGGGLVQPGGSLRLSCAASGFTFSSYAMSWVRQAPGKGLEWVSAISGGGGTTYSSDSVKGRFTISRDNSKNTLYLQMNSLRAEDTAVYYCARDSGVAFDIWGQGTLVTVSSGGGGSGGGGSGGGASDIQMTQSPSFLSASVGDRVTITCRASQNIRTWLAWYQQKPGRAPKLLIYDASSLESGVPSRFSGSGSGTDFTLTISSLQPEDFATYYCQQFKRYPPTFGLGTKVEIK
7 | 17100 | 1251_P02_G10 (scFv) (scFv) scFv: EVQLVESGGGLVQPGGSLRLSCAASGFTFSDYYMSWIRQAPGKGLEWVSYISSSGSTIYYADSVKGRFTISRDNAKNSLYLQMNSLRAEDTAVYYCARHSWNDAFDIWGRGTLVTVSSGGGGSGGGGSGGGASDIQMTQSPSSLSASVGDRVTITCRASQSISSHLNWYQQKPGKAPKLLIYAASSLQSGVPSRFSASGSGTDFTLTISSLQPEDFATYYCQQSYSTLLTFGGGTKVEIK
8 | 5900 | 1245_P02_G04 (scFv) (scFv) scFv: QVQLQQSGPGLVKPSQTLSLTCAISGDSVSSKSAAWNWIRQSPSRGLEWLGRTYYRSKWSTDYAASVKSRITINPDTSKNQLSLQLNSVTPEDTAVYYCARTWSGYVDVWGQGTLVTVSSGGGGSGGGGSGGGASDIQMTQSPPALSASVGDRVTITCRASQDINDWLAWYQHKPGKAPKLLIYDASSLESGVPSRFSGSGSGTEFTLTISSLQPDDFATYYCQQSYSTPQVTFGQGTRLEIK
9 | 1980 | 1252_P01_C08 (scFv) (scFv) scFv: EVQLLESGGGLVQPGRSLRLSCAASGFTVSSNYMSWVRQAPGKGLEWVSVIYSGGSTYYADSVKGRFTISRDNSKNTLYLQMNSLRAEDTAVYYCASPIELGAFDIWGQGTLVTVSSGGGGSGGGGSGGGASSYELTQPPSVSVAPGKTARITCGGNNIGSQSVHWYQQKPGQAPMLVIYYDSDRPSGIPERFSGSNSGNTATLTISRVEAGDEADYYCQVWDSSSDHVVFGGGTKLTVL
